Measured values as given in the Human Domainome abundance scans (Beltran et al. 2025).

B1: Dystrobrevin alpha, residues 235 to 294; numbered along this chain, Q9Y4J8 (parent)
chain: ENVFHPVECSYCHSESMMGFRYRCQQCHNYQLCQDCFWRGHAGGSHSNQHQMKEYTSWKS

Variants of: B1
Experiment: abundance fitness (aPCA) (normalised: wild type 0, dead -1); higher = more abundant; growth selection in yeast, the domain comes from the species named
Conditions: Homo sapiens

Abundance fitness, by site and new letter:
G43: N 0.121 | A -0.325 | I -0.685 | F -0.542 | V -0.352 | W -0.208 | L -0.221 | T -0.139 | D 0.325 | H -0.09 | C -0.034 | E 0.087 | P -0.765 | S 0.09 | M -0.068
F37: W -0.051 | D -0.488 | M 0.081 | C -0.473 | Q -0.003 | N -0.401 | G -0.348 | P -0.62 | Y -0.052 | V -0.045 | E -0.101 | H -0.092 | T -0.439 | A -0.043 | L -0.232 | R -0.098 | I -0.087 | S -0.278
R39: M -0.072 | E 0.074 | Q 0.116 | L -0.08 | I -0.308 | Y -0.099 | F -0.34 | T -0.107 | H 0.092 | S 0.062 | N 0.086 | C -0.071 | D -0.083 | P -0.495 | K 0.228 | G 0.011 | W -0.282 | A 0.142 | V -0.202
Y30: V -0.206 | D -0.508 | Q -0.559 | A -0.398 | G -0.553 | P -0.638 | R -0.301 | W -0.458 | E -0.378 | F -0.183 | T -0.426 | H -0.53 | S -0.478 | K -0.519 | L -0.36 | M -0.288 | C -0.554
A42: T -0.054 | P -0.421 | N -0.077 | E 0.081 | L -0.285 | H 0.05 | W -0.29 | I -0.372 | Q -0.071 | K -0.224 | Y -0.381 | D -0.253 | V 0.005 | M -0.04 | G -0.026 | R -0.032
Q34: M -0.302 | E 0.044 | T -0.19 | K 0.127 | H -0.156 | F -0.394 | S -0.087 | G -0.027 | R -0.047 | L -0.423 | N -0.146 | Y -0.147 | A -0.053 | V -0.169 | W -0.606 | P -0.163 | D -0.267
G44: P -0.523 | C -0.362 | M -0.384 | L -0.621 | K -0.177 | E -0.303 | N -0.285 | I -0.719 | H -0.818 | Q -0.841 | F -1.15 | D 0.077
C33: T -0.944 | R -0.675 | E -0.541 | S -0.658 | V -0.836 | D -0.894 | K -0.983 | F -0.625 | N -0.592 | A -0.495 | Q -0.609 | W -0.811 | H -0.659 | L -0.874 | I -0.884 | G -0.78 | Y -0.954 | M -0.823
H28: S 0.027 | M -0.008 | C -0.093 | N 0.152 | R -0.002 | V 0.06 | A 0.145 | I 0.033 | F -0.112 | E 0.063 | T 0.1 | W -0.16 | G -0.1 | L 0.002 | P 0.066 | K 0.122 | D 0.209
D35: Q -0.204 | P 0.025 | S -0.033 | H 0.001 | A -0.093 | M -0.022 | G -0.235 | F 0.197 | W -0.33 | Y 0.011 | V -0.084 | R -0.089 | C -0.113 | N 0.069 | I -0.113
C36: V -0.873 | K -0.192 | D -0.624
